Patent US20060240012A1

How the values were obtained:
[1] = target: human interleukin-6 (human) (UniProt P05231); assay: SPR (BIAcore), purified scFv
[2] = target: human interleukin-6 (human) (UniProt P05231); assay: SPR (BIAcore), human IL-6 immobilised, IL6gk3-2 scFv injected at 10 to 80 nM

Sequence of UniProt P05231 (P05231 29-212 limits assumed): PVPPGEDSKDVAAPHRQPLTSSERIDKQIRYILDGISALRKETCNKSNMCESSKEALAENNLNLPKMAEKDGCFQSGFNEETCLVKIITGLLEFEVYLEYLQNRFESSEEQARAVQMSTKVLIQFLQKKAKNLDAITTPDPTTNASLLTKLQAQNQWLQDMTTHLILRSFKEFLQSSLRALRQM

- Kd [1]: 13 nM
- koff [2]: 0.0008 s⁻¹
- kon [2]: 60000 M⁻¹ s⁻¹
B1: IL6gk3-2 scFv (purified soluble single chain Fv of the human anti-human IL-6 antibody clone IL6gk3-2) (scFv, part only; not given: linker and E-tag, V domains shown, not shown: another chain or arm of the molecule; small tags and cut ends)
VH: QVNLRESGGDLVKPGGSLRLSCAASGFTFRKYYMAWIRQAPGKGPEWLSTISNSGDIIDYADSVRGRFSISRDNAQKSLYLQMTSLRPDDSAIYYCAREYFFSFDVWGRGTMVTVSS
VL: DIVMTQSPSSVSASVGDRVTIFCRASQDIRNWVAWYQQKPGEAPKLLIYDGSSLQSGVPSRFSGSGSGTEFTLTISSLQPEDFATYYCQQSDSTPITFGQGTRLEIK
